B1: Tuftelin-interacting protein 11 (Homo sapiens), Q9UBB9 (parent)
chain: MSLSHLYRDGEGRIDDDDDERENFEITDWDLQNEFNPNRQRHWQTKEEATYGVWAERDSDDERPSFGGKRARDYSAPVNFISAGLKKGAAEEAELEDSDDEEKPVKQDDFPKDFGPRKLKTGGNFKPSQKGFAGGTKSFMDFGSWERHTKGIGQKLLQKMGYVPGRGLGKNAQGIINPIEAKQRKGKGAVGAYGSERTTQSMQDFPVVDSEEEAEEEFQKELSQWRKDPSGSKKKPKYSYKTVEELKAKGRISKKLTAPQKELSQVKVIDMTGREQKVYYSYSQISHKHNVPDDGLPLQSQQLPQSGKEAKAPGFALPELEHNLQLLIDLTEQEIIQNDRQLQYERDMVVNLFHELEKMTEVLDHEERVISNLSKVLEMVEECERRMQPDCSNPLTLDECARIFETLQDKYYEEYRMSDRVDLAVAIVYPLMKEYFKEWDPLKDCTYGTEIISKWKSLLENDQLLSHGGQDLSADAFHRLIWEVWMPFVRNIVTQWQPRNCDPMVDFLDSWVHIIPVWILDNILDQLIFPKLQKEVENWNPLTDTVPIHSWIHPWLPLMQARLEPLYSPIRSKLSSALQKWHPSDSSAKLILQPWKDVFTPGSWEAFMVKNIVPKLGMCLGELVINPHQQHMDAFYWVIDWEGMISVSSLVGLLEKHFFPKWLQVLCSWLSNSPNYEEITKWYLGWKSMFSDQVLAHPSVKDKFNEALDIMNRAVSSNVGAYMQPGARENIAYLTHTERRKDFQYEAMQERREAENMAQRGIGVAASSVPMNFKDLIETKAEEHNIVFMPVIGKRHEGKQLYTFGRIVIYIDRGVVFVQGEKTWVPTSLQSLIDMAK
B2: Maspardin (Homo sapiens), Q9NZD8 (parent)
chain: MGEIKVSPDYNWFRGTVPLKKIIVDDDDSKIWSLYDAGPRSIRCPLIFLPPVSGTADVFFRQILALTGWGYRVIALQYPVYWDHLEFCDGFRKLLDHLQLDKVHLFGASLGGFLAQKFAEYTHKSPRVHSLILCNSFSDTSIFNQTWTANSFWLMPAFMLKKIVLGNFSSGPVDPMMADAIDFMVDRLESLGQSELASRLTLNCQNSYVEPHKIRDIPVTIMDVFDQSALSTEAKEEMYKLYPNARRAHLKTGGNFPYLCRSAEVNLYVQIHLLQFHGTKYAAIDPSMVSAEELEVQKGSLGISQEEQ
B3: Keratin, type I cytoskeletal 20 (Homo sapiens), P35900 (parent)
chain: MDFSRRSFHRSLSSSLQAPVVSTVGMQRLGTTPSVYGGAGGRGIRISNSRHTVNYGSDLTGGGDLFVGNEKMAMQNLNDRLASYLEKVRTLEQSNSKLEVQIKQWYETNAPRAGRDYSAYYRQIEELRSQIKDAQLQNARCVLQIDNAKLAAEDFRLKYETERGIRLTVEADLQGLNKVFDDLTLHKTDLEIQIEELNKDLALLKKEHQEEVDGLHKHLGNTVNVEVDAAPGLNLGVIMNEMRQKYEVMAQKNLQEAKEQFERQTAVLQQQVTVNTEELKGTEVQLTELRRTSQSLEIELQSHLSMKESLEHTLEETKARYSSQLANLQSLLSSLEAQLMQIRSNMERQNNEYHILLDIKTRLEQEIATYRRLLEGEDVKTTEYQLSTLEERDIKKTRKIKTVVQEVVDGKVVSSEVKEVEENI
B4: Peroxisomal bifunctional enzyme (Homo sapiens), Q08426 (parent)
chain: MAEYTRLHNALALIRLRNPPVNAISTTLLRDIKEGLQKAVIDHTIKAIVICGAEGKFSAGADIRGFSAPRTFGLTLGHVVDEIQRNEKPVVAAIQGMAFGGGLELALGCHYRIAHAEAQVGLPEVTLGLLPGARGTQLLPRLTGVPAALDLITSGRRILADEALKLGILDKVVNSDPVEEAIRFAQRVSDQPLESRRLCNKPIQSLPNMDSIFSEALLKMRRQHPGCLAQEACVRAVQAAVQYPYEVGIKKEEELFLYLLQSGQARALQYAFFAERKANKWSTPSGASWKTASARPVSSVGVVGLGTMGRGIVISFARARIPVIAVDSDKNQLATANKMITSVLEKEASKMQQSGHPWSGPKPRLTSSVKELGGVDLVIEAVFEEMSLKKQVFAELSAVCKPEAFLCTNTSALDVDEIASSTDRPHLVIGTHFFSPAHVMKLLEVIPSQYSSPTTIATVMNLSKKIKKIGVVVGNCFGFVGNRMLNPYYNQAYFLLEEGSKPEEVDQVLEEFGFKMGPFRVSDLAGLDVGWKSRKGQGLTGPTLLPGTPARKRGNRRYCPIPDVLCELGRFGQKTGKGWYQYDKPLGRIHKPDPWLSKFLSRYRKTHHIEPRTISQDEILERCLYSLINEAFRILGEGIAASPEHIDVVYLHGYGWPRHKGGPMFYASTVGLPTVLEKLQKYYRQNPDIPQLEPSDYLKKLASQGNPPLKEWQSLAGSPSSKL
B5: Notch homolog 2 N-terminal-like protein A (Homo sapiens), Q7Z3S9 (parent)
chain: MCVTYHNGTGYCKCPEGFLGEYCQHRDPCEKNRCQNGGTCVAQAMLGKATCRCASGFTGEDCQYSTSHPCFVSRPCLNGGTCHMLSRDTYECTCQVGFTGKECQWTDACLSHPCANGSTCTTVANQFSCKCLTGFTGQKCETDVNECDIPGHCQHGGTCLNLPGSYQCQCLQGFTGQYCDSLYVPCAPSPCVNGGTCRQTGDFTFECNCLPETVRRGTELWERDREVWNGKEHDEN
partner: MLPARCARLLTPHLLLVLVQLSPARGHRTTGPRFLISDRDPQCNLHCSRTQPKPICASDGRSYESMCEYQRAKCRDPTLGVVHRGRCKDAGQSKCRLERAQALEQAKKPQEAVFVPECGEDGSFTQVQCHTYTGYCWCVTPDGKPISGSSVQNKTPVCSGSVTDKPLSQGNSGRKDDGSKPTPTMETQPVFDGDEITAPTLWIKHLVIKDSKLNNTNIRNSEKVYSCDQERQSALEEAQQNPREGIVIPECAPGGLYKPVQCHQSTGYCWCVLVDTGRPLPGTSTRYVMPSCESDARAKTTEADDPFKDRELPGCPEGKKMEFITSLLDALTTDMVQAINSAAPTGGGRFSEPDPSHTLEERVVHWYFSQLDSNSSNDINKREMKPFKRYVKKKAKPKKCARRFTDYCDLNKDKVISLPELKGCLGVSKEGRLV

Variants of: B1
Conditions: with zmat2_human ZMAT2, Q96NC0
Sequence of zmat2_human ZMAT2, Q96NC0 (Q96NC0 whole entry): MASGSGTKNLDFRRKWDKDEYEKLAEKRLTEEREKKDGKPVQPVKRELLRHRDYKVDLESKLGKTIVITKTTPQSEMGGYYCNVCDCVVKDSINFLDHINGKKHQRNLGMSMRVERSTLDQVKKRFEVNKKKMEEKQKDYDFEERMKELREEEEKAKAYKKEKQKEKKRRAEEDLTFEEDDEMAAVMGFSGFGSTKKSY

Row | effect of a mutation on the interaction | Variant
1 | with no effect | R8Q

Variants of: B1
Conditions: with cox5b_human COX5B

Row | effect of a mutation on the interaction | Variant
2 | with no effect | R8Q

Variants of: B1
Conditions: with txlna_human TXLNA

Row | effect of a mutation on the interaction | Variant
3 | with no effect | R8Q

Variants of: B1
Conditions: with hook1_human HOOK1, Q9UJC3
Sequence of hook1_human HOOK1, Q9UJC3 (Q9UJC3 whole entry): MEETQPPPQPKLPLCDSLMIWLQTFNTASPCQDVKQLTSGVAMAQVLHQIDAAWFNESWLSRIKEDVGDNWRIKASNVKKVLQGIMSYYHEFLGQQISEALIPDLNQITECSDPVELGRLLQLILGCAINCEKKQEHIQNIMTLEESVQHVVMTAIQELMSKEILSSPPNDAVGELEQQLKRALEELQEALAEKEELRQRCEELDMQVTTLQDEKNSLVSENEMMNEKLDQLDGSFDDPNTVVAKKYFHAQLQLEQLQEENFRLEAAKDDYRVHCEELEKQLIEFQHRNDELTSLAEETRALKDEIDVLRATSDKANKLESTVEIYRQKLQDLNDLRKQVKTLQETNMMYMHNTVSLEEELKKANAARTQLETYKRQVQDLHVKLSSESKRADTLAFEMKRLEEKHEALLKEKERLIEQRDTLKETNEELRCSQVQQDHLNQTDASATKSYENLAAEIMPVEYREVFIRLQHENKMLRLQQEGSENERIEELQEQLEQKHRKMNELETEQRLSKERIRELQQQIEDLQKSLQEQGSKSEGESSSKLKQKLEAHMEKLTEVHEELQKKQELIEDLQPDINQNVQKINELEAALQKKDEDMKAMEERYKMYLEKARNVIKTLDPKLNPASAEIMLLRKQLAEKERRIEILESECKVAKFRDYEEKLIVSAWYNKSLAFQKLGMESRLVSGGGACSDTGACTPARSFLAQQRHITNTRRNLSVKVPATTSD

Row | effect of a mutation on the interaction | Variant
4 | with no effect | R8Q

Variants of: B1
Conditions: with tnnt1_human TNNT1, P13805
Sequence of tnnt1_human TNNT1, P13805 (P13805 whole entry): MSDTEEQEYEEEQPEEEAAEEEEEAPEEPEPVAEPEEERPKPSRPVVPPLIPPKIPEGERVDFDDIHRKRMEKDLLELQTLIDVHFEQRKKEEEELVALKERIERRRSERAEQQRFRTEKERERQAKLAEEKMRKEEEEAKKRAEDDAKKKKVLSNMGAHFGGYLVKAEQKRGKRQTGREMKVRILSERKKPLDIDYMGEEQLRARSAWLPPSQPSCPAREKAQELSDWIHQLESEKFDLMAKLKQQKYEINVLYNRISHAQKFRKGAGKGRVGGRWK

Row | effect of a mutation on the interaction | Variant
5 | with no effect | R8Q

Variants of: B1
Conditions: with coq8a_human COQ8A

Row | effect of a mutation on the interaction | Variant
6 | with no effect | R8Q

Variants of: B1
Conditions: with smce1_human SMARCE1, Q969G3

Row | effect of a mutation on the interaction | Variant
7 | with no effect | R8Q

Variants of: B1
Conditions: with bmf_human BMF

Row | effect of a mutation on the interaction | Variant
8 | with no effect | R8Q

Variants of: B1
Conditions: with fa13c_human FAM13C

Row | effect of a mutation on the interaction | Variant
9 | with no effect | R8Q

Variants of: B1
Conditions: with prp31_human PRPF31, Q8WWY3

Row | effect of a mutation on the interaction | Variant
10 | with no effect | R8Q

Variants of: B1
Conditions: with snw1_human SNW1, Q13573
Sequence of snw1_human SNW1, Q13573 (Q13573 whole entry): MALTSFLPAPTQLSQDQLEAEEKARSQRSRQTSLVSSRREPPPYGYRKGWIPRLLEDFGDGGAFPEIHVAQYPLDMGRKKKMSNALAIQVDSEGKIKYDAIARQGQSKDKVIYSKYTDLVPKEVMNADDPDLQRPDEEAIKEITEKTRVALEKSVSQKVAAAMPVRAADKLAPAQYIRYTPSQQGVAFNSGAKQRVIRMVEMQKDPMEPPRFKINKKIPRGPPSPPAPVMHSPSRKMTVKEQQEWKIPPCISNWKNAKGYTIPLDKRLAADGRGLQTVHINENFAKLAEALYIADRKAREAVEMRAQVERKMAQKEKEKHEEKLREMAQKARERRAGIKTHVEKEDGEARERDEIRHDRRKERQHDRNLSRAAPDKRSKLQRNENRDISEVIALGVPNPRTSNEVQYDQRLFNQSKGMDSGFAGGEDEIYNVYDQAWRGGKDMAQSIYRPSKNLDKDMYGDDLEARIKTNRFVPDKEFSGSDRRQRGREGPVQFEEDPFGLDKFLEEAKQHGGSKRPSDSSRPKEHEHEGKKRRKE

Row | effect of a mutation on the interaction | Variant
11 | with no effect | R8Q

Variants of: B1
Conditions: with sfr1_human SFR1, Q86XK3

Row | effect of a mutation on the interaction | Variant
12 | with no effect | R8Q

Variants of: B1
Conditions: with zfy26_human ZFYVE26, Q68DK2

Row | effect of a mutation on the interaction | Variant
13 | with no effect | R8Q

Variants of: B1
Conditions: with abi2_human ABI2, Q9NYB9
Sequence of abi2_human ABI2, Q9NYB9 (Q9NYB9 whole entry): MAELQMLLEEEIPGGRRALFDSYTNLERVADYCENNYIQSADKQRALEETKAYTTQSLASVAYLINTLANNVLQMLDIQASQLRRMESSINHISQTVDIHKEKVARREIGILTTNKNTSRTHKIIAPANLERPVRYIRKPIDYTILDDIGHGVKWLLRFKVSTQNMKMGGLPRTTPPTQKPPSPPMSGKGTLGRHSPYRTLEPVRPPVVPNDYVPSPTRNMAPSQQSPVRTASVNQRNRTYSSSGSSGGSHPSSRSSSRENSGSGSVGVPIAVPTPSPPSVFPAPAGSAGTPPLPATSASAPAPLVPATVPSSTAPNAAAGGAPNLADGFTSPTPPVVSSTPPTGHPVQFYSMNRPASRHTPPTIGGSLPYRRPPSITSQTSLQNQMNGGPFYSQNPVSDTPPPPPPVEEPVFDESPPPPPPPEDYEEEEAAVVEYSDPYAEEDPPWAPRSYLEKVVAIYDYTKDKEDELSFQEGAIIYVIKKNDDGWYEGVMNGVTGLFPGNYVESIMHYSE

Row | effect of a mutation on the interaction | Variant
14 | with no effect | R8Q

Variants of: B1
Conditions: with cc121_human CCDC121, Q6ZUS5

Row | effect of a mutation on the interaction | Variant
15 | with no effect | R8Q

Variants of: B1
Conditions: with KRT6A

Row | effect of a mutation on the interaction | Variant
16 | with no effect | R8Q

Variants of: B2
Conditions: with rtn4_human RTN4, Q9NQC3

Row | effect of a mutation on the interaction | Variant
17 | with no effect | A180T

Variants of: B2
Conditions: with cryaa_human CRYAA

Row | effect of a mutation on the interaction | Variant
18 | disrupting interaction strength | A180T
19 | disrupting interaction strength | H272D

Variants of: B2
Conditions: with reep6_human REEP6, Q96HR9
Sequence of reep6_human REEP6, Q96HR9 (Q96HR9 whole entry): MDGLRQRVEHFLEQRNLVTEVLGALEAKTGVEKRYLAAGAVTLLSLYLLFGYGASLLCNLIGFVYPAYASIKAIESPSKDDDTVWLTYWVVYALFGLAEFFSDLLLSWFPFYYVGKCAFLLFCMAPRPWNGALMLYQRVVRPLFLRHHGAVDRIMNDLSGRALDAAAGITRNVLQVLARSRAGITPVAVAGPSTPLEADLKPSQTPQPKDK

Row | effect of a mutation on the interaction | Variant
20 | with no effect | A180T

Variants of: B2
Conditions: with traf2_human TRAF2, Q12933
Sequence of traf2_human TRAF2, Q12933 (Q12933 whole entry): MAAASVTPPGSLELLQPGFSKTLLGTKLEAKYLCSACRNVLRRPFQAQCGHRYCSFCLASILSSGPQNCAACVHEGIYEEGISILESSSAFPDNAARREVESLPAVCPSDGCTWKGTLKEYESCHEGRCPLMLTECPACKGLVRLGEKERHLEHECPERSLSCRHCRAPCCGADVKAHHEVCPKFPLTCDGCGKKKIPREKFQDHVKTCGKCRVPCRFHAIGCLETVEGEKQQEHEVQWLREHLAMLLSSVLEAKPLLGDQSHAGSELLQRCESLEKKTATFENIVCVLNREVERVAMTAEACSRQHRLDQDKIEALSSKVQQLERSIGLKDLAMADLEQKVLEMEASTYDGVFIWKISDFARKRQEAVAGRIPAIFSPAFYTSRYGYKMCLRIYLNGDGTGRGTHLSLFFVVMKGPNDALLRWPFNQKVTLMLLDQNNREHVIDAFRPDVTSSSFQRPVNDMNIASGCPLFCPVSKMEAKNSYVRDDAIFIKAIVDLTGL

Row | effect of a mutation on the interaction | Variant
21 | with no effect | A180T
22 | disrupting interaction strength | H272D

Variants of: B2
Conditions: with spre2_human SPRED2, Q7Z698

Row | effect of a mutation on the interaction | Variant
23 | with no effect | A180T

Variants of: B2
Conditions: with htf4_human TCF12, Q99081
Sequence of htf4_human TCF12, Q99081 (Q99081 whole entry): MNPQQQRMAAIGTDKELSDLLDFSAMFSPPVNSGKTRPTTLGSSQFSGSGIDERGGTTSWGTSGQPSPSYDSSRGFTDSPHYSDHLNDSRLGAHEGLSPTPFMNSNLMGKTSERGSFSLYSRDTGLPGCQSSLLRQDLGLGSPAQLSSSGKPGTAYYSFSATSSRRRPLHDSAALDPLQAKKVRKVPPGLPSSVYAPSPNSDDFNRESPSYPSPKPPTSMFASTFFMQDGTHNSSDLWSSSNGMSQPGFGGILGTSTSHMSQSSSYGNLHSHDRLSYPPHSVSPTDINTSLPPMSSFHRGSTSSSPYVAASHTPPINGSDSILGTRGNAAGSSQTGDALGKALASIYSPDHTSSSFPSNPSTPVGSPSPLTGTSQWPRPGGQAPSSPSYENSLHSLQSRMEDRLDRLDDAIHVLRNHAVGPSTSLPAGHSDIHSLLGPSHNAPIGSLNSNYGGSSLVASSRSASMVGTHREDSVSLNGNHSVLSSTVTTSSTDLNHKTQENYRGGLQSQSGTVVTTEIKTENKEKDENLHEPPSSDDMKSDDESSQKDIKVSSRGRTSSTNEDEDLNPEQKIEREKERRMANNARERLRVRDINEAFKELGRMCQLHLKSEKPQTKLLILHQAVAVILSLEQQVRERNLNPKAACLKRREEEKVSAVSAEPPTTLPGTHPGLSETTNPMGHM

Row | effect of a mutation on the interaction | Variant
24 | with no effect | A180T
25 | disrupting interaction strength | H272D

Variants of: B2
Conditions: with atrap_human AGTRAP

Row | effect of a mutation on the interaction | Variant
26 | with no effect | A180T

Variants of: B2
Conditions: with akir2_human AKIRIN2, Q53H80

Row | effect of a mutation on the interaction | Variant
27 | with no effect | A180T

Variants of: B3
Conditions: with KRT15, P19012
Sequence of KRT15, P19012 (P19012 whole entry): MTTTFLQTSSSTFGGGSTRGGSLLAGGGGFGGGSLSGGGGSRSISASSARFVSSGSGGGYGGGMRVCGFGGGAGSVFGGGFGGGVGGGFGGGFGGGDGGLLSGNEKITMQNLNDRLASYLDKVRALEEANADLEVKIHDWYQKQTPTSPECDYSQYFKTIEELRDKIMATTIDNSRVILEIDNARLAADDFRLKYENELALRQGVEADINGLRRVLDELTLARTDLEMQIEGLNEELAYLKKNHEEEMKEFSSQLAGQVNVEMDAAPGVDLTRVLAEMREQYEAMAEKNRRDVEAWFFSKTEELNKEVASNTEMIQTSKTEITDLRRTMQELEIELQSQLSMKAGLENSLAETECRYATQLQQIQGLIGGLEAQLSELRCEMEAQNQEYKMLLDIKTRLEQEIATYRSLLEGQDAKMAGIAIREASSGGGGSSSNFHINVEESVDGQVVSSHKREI

Row | effect of a mutation on the interaction | Variant
28 | with no effect | S129N
29 | with no effect | S309Y

Variants of: B3
Conditions: with vime_human VIM

Row | effect of a mutation on the interaction | Variant
30 | with no effect | S129N
31 | with no effect | S309Y

Variants of: B4
Conditions: with tpp2_human TPP2, P29144

Row | effect of a mutation on the interaction | Variant
32 | with no effect | R556G
33 | disrupting interaction strength | I646T

Continued, variant first:

Row | Variant | effect of a mutation on the interaction
34 | S703F | with no effect
35 | L715S | with no effect
36 | R483Q | disrupting interaction strength

Variants of: B4
Conditions: with actb_human ACTB

Row | effect of a mutation on the interaction | Variant
37 | with no effect | R556G
38 | disrupting interaction strength | I646T

The remaining lines, values behind:

Row | Variant | effect of a mutation on the interaction
39 | S703F | with no effect
40 | L715S | with no effect
41 | R483Q | disrupting interaction strength

Variants of: B4
Conditions: with actg_human ACTG1, P63261

Row | effect of a mutation on the interaction | Variant
42 | with no effect | R556G
43 | disrupting interaction strength | I646T

Second part, the variant before the results:

Row | Variant | effect of a mutation on the interaction
44 | S703F | with no effect
45 | L715S | with no effect
46 | R483Q | disrupting interaction strength

Variants of: B4
Conditions: with tnip1_human TNIP1, Q15025
Sequence of tnip1_human TNIP1, Q15025 (Q15025 whole entry): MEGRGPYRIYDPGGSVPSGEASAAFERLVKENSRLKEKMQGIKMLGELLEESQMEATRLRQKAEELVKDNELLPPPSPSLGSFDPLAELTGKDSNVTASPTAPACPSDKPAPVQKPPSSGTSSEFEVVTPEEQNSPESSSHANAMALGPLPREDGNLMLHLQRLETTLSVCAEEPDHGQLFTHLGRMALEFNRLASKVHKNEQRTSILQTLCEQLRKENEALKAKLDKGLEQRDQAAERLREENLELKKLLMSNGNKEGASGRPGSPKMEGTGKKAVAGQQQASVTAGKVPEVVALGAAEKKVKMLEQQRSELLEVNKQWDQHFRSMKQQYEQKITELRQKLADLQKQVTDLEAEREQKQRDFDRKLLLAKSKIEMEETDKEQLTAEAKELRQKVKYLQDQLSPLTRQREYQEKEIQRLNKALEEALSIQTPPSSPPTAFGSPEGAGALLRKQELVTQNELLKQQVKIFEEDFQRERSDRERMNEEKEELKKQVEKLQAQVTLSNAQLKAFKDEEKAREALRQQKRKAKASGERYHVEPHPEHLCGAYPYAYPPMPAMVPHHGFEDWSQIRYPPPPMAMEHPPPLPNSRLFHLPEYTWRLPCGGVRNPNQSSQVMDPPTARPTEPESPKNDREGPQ

Row | effect of a mutation on the interaction | Variant
47 | with no effect | S703F
48 | with no effect | L715S
49 | with no effect | R483Q
50 | disrupting interaction strength | I646T

Variants of: B4
Conditions: with fund1_human FUNDC1, Q8IVP5
Sequence of fund1_human FUNDC1, Q8IVP5 (Q8IVP5 whole entry): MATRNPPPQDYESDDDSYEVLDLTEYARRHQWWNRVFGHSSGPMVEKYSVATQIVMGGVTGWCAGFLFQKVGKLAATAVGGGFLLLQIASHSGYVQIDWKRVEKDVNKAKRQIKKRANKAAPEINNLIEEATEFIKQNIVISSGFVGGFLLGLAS

Row | effect of a mutation on the interaction | Variant
51 | disrupting interaction strength | Q685K

Variants of: B4
Conditions: with tri41_human TRIM41, Q8WV44

Row | effect of a mutation on the interaction | Variant
52 | with no effect | Q685K

Variants of: B4
Conditions: with CCDC102B

Row | effect of a mutation on the interaction | Variant
53 | with no effect | Q685K

Variants of: B5
Conditions: with smoc1_human SMOC1, Q9H4F8

Row | effect of a mutation on the interaction | Variant
54 | with no effect | A115T
55 | with no effect | R74Q
